Measured values: PMC10193008, “Discovery of an inhibitor of DNA-driven inflammation that preferentially targets the AIM2 inflammasome”

Biological target: T1, AIM2-GST (rhAIM2) (human, UniProt O14862 1-343)
T1 sequence: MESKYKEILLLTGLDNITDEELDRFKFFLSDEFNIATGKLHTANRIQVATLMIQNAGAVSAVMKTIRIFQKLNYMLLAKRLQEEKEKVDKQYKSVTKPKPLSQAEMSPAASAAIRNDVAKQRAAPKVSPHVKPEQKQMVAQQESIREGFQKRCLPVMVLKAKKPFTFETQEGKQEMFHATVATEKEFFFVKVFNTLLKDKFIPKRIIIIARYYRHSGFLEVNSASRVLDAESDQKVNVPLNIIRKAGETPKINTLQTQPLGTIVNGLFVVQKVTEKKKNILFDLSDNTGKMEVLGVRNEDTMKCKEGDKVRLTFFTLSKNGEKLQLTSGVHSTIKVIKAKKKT
Assay: EMSA; no inhibitor
Conditions: protein: commercial; tags: GST; label: none (SYBR Safe stain after electrophoresis); blunt

B1: VACV72 dsDNA (dsDNA)
DNA 1: ATCCATCAGAAAGAGGTTTAATATTTTTGTGAGACCATCGAAGAGAGAAAGAGATAAAACTTTTTTACGACT
DNA 2: AGTCGTAAAAAAGTTTTATCTCTTTCTCTCTTCGATGGTCTCACAAAAATATTAAACCTCTTTCTGATGGAT
- binding result: binds
